The values that follow come from publication PMC8602850.

The test has as its target gC1qR-ΔΔ, gC1qR deletion mutant that removed the flexible, negatively charged loops (UniProt Q07021). The experiment in a line: SPR; gC1qR-WT or gC1qR-ΔΔ immobilised; two-fold dilution series of analyte injected; reference-corrected sensorgrams fit to kinetic models; apparent KD. For orientation: In SPR one partner is held on a chip, and binding of the other changes the refractive index at the surface.

Chain of gC1qR-ΔΔ, gC1qR deletion mutant that removed the flexible, negatively charged loops (Q07021 74-282, stated change not applied): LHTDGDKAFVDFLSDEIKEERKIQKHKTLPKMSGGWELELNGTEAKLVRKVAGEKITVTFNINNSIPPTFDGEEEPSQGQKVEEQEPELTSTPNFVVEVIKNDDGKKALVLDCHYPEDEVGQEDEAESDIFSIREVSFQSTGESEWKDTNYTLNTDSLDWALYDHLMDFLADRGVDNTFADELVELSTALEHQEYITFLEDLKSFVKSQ

Turning to “SARS-CoV-2 Membrane-Envelope fusion protein, recombinant”, the Kd was 360 nM.
